{"source": "patent US20120082688A1", "about": "“In Vitro Generation of Myeloid Derived Suppressor Cells” (MOUNT SINAI SCHOOL OF MEDICINE, priority 2008, published 2012)", "key": {"[1]": {"system": "HS-MDSC- and TD-MDSC-mediated suppression of T-cell proliferation", "test": "Suppression assay with iNOS inhibitor / arginase inhibitor: MDSCs co-incubated with B6 splenocytes, anti-CD3/anti-CD28, [3H]-thymidine", "type": "cell-based, mouse", "protocol": "The suppressive activity of MDSCs was assessed either by co-culturing 1×10^5 129SvEv (using B6 for HSC-MDSCs comparison) splenocytes with various numbers of CD115^+ cells or […] in the presence of anti-CD3/anti-CD28 (0.5 μg/ml) or by co-culturing 2×10^5 129SvEv splenocytes (responder) with an equal number of irradiated (25 Gy) BALB/c splenocytes (stimulator) in the presence of various numbers of CD115^+ or CD115^− cells for 4 days. [^3H]-thymidine was added for the last 8 hours of incubation. For Treg induction, 4×10^6/well of 129SvEv (B6 for HSC-MDSCs) splenocytes and 1×10^6 CD115^+ or CD115^− cells were cocultured for 5 days in the presence of anti-CD3/anti-CD28 (0.5 μg/ml). Foxp3 expression was determined by intracellular staining and NO level in the supernatant was measured by Greiss reagents (Sigma-Aldrich, St. Louis, Mo.).\nTo delineate which of the aforementioned suppressive mechanism(s) play a major role, the functional activity of HS-MDSCs was evaluated when specific pathway(s) were interfered. To evaluate the role of iNOS, HS-MDSCs (developed from Lin− B6 BM cells) or TD-MDSCs were co-incubated with B6 splenocytes at a 1:2 ratio in the absence or presence of various concentrations of L-NMMA (L) or NOHA (N), or combination of L-NMMA and NOHA. Cells were stimulated with anti-CD3/anti-CD28 and [3H]-thymidine was pulsed for the final 8 hours of a 3-day culture."}, "HoxB4 ES cells": {"system": "HoxB4 ES cells", "test": "Differentiation of HoxB4 ES cells on OP9 stroma in M2 cytokine mix with added cytokines, FACS", "type": "cell-based, mouse", "protocol": "Next, EB-derived cells were subjected to further differentiation by co-culturing them with OP9 stroma, an M-CSF-deficient cell line that has been widely used for in vitro differentiation of ES cells. For this, day 6 EBs (except otherwise specified) were trypsinized, and dissociated cells were seeded onto semiconfluent OP9 monolayers (irradiated immediately before coculture) at a density of 1×10^5/ml (2 ml/well, 6-well plate), and cultured in medium containing IMDM, 15% FCS (BenchMark, Gemcell), 2 mM L-glutamine, 100 U/mL penicillin and 100 μg/mL streptomycin, 1 ug/ml doxycycline, 1.5×10^−4M MTG, plus M1 cytokine mix composed of 1% c-kit Ligand (KL; CM), […] murine IL-6, and 0.5% WEHI (IL-3, CM). 2 days later, the medium was removed and replaced with 3 ml of fresh medium containing M2 cytokine mix consisting of 1% KL supernant, 0.5% murine thrombopoietin (TPO, CM), 40 ng/ml murine VEGF, 50 ng/ml murine Flt-3L or with medium containing M2 plus 10 ng/ml murine M-CSF (or M2+M-CSF) (all mouse recombinant cytokines were purchased from Peprotec Inc.), and medium was changed every other day thereafter. Unless otherwise specified, non-adherent and loosely attached cells were harvested after 10 days coculture in M2+M-CSF and used for morphologic, phenotypic, developmental, and functional analysis.\nTo enhance the production of ES cell-derived myeloid cells, additional cytokines were tested, including the colony-stimulating factor family members M-CSF and GM-CSF. […] For experiments in FIGS. 1C and D, Hoxb4 ES cells were differentiated with the same procedure as described in FIG. 1A, but in the last step cells were cultured for 10 day in M2 or M2 supplanted with M-CSF or GM-CSF (FIG. 1C) or M2 plus various concentration of M-CSF (FIG. 1D)."}, "[2]": {"settings": "cytokine added to M2 cultures, 10 days"}}, "note": "“Also recorded” adds a separate entry of the source.", "data": [{"molecule": "N=C(NO)NCCC[C@H](N)C(=O)O", "note": "[NOHA]", "values": [{"measurement": "interference with suppressive activity of HSC-MDSC or TD-MDSC", "setting": "[1]; 500 μM, MDSC:splenocyte 1:2, P>0.05", "result": "did not interfere significantly; also recorded: minimal effects"}]}, {"molecule": "CNC(=N)NCCC[C@H](N)C(=O)O", "note": "[L-NMMA, N^G-monomethyl-L-arginine]", "values": [{"measurement": "reversal of MDSC suppression of T cells", "setting": "[1]; 5 μM, MDSC:splenocyte 1:2, P<0.05 HSC MDSC, P<0.01 TD-MDSC", "result": "substantially reversed"}, {"measurement": "reversal of suppression of HS- and TD-MDSCs against T-cell proliferation", "setting": "[1]; various concentrations, dose-dependent manner", "result": "partially but significantly reversed"}]}, {"molecule": "granulocyte macrophage colony stimulating factor (protein, UniProt P01587 18-141, looked up, colony-stimulating factor family cytokine added to M2 cultures) Granulocyte-macrophage …: APTRSPITVTRPWKHVEAIKEALNLLDDMPVTLNEEVEVVSNEFSFKKLTCVQTRLKIFEQGLRGNFTKLKGALNMTASYYQTYCPPTPETDCETQVTTYADFIDSLKTFLTDIPFECKKPGQK", "values": [{"measurement": "change of CD115+Ly-6C^+ cells", "setting": "HoxB4 ES cells; [2]", "result": "dramatic decrease"}, {"measurement": "change of CD115^−Ly-6C^+ cells", "setting": "HoxB4 ES cells; [2]", "result": "marked increase"}]}, {"molecule": "macrophage colony-stimulating factor (protein, UniProt P07141 33-552, looked up, murine recombinant cytokine added to M2 cocktail) Macrophage colony-stimulating …: KEVSEHCSHMIGNGHLKVLQQLIDSQMETSCQIAFEFVDQEQLDDPVCYLKKAFFLVQDIIDETMRFKDNTPNANATERLQELSNNLNSCFTKDYEEQNKACVRTFHETPLQLLEKIKNFFNETKNLLEKDWNIFTKNCNNSFAKCSSRDVVTKPDCNCLYPKATPSSDPASASPHQPPAPSMAPLAGLAWDDSQRTEGSSLLPSELPLRIEDPGSAKQRPPRSTCQTLESTEQPNHGDRLTEDSQPHPSAGGPVPGVEDILESSLGTNWVLEEASGEASEGFLTQEAKFSPSTPVGGSIQAETDRPRALSASPFPKSTEDQKPVDITDRPLTEVNPMRPIGQTQNNTPEKTDGTSTLREDHQEPGSPHIATPNPQRVSNSATPVAQLLLPKSHSWGIVLPLGELEGKRSTRDRRSPAELEGGSASEGAARPVARFNSIPLTDTGHVEQHEGSSDPQIPESVFHLLVPGIILVLLTVGGLLFYKWKWRSHRDPQTLDSSVGRPEDSSLTQDEDRQVELPV", "values": [{"measurement": "production of both CD115^+ populations", "setting": "HoxB4 ES cells; M2 plus cytokine, 10 days, dose-dependent", "result": "significantly augmented"}, {"measurement": "increase of frequency of both CD115 positive populations", "setting": "HoxB4 ES cells; added along with M2", "result": "over 2 fold"}, {"measurement": "percentages of CD115^+ cells", "setting": "HoxB4 ES cells; higher concentration, 20 ng/ml", "result": "decreased"}]}]}
